Among the data in paper PMC4357141 are Kd values, retold here.

The target in the assay is GST-sPol_PR_(D25N) (Glutathione S-Transferase tagged HIV-1 Pol polyprotein with a catalytically dead protease) (HIV-1). Kind of assay: AlphaScreen or HTRF; titration: GST-sPol_PR_(D25N) constant at 20 nM, WT or D366N Flag-LEDGF/p75 titrated from 50 nM downward (1:2.5 series); glutathione donor and anti-Flag acceptor beads; 25 mM Tris/HCl pH 7.5, 150 mM NaCl, 1 mM DTT, 1 mM MgCl2, 0.1% BSA, 0.1% Tween 20; 1 h at 4°C, then 1 h at 23°C with beads; apparent. (Bead proximity is the source of the signal in Alpha formats.)

Regarding “Flag-LEDGF/p75 WT (lens epithelium-derived growth factor p75) (from UniProt O75475 1-530) (natural protein)”, the Kd is 3.1 nM.
